Experimental data as given in the supplement of paper PMC10724198.
± gives the standard deviation of the averaged measurements.

Experiments:
Saccharomyces cerevisiae [1] = experiment: protein stability index of tFT-peptide fusion (C-terminal peptide) (PSI (0-1 scale)); higher = more stable (slower turnover)
Procedure: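 MPS profiling in S. cerevisiae of the tFT-X12 degron library: putative degron peptides plus stable controls, 12 aa, fused to the C-terminus of a sfGFP-mCherry timer. Cells are FACS-sorted into 8 mCherry/sfGFP bins and deep-sequenced. PSI runs from 0 (unstable) to 1 (stable). Backgrounds are wild type, das1Δ and doa10Δ at 30 °C, and wild type, das1Δ, cdc34-1 and cdc53-1 at 37 °C; 2-3 technical replicates each.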

Saccharomyces cerevisiae [2] = experiment: as above; conditions: genetic background: wild type; temperature: 30 C
[3] = genetic background: cdc34-1, temperature: 37 C
[4] = genetic background: cdc53-1, temperature: 37 C
[5] = genetic background: das1 deletion, temperature: 30 C
[6] = genetic background: das1 deletion, temperature: 37 C
[7] = genetic background: doa10 deletion, temperature: 30 C
[8] = genetic background: wild type, temperature: 30 C
[9] = genetic background: wild type, temperature: 37 C
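Note: PSI is a weighted mean of sequencing reads over stability bins, variants kept only with over 10 reads, mCherry proximal and sfGFP distal, peptide attached via GGGS linker.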

Row | Sequence | protein stability index (Saccharomyces cerevisiae [1]; [3]) | protein stability index (Saccharomyces cerevisiae [1]; [4]) | protein stability index (Saccharomyces cerevisiae [1]; [5]) | protein stability index (Saccharomyces cerevisiae [1]; [6]) | protein stability index (Saccharomyces cerevisiae [1]; [7]) | protein stability index (Saccharomyces cerevisiae [1]; [8]) | protein stability index (Saccharomyces cerevisiae [1]; [9]) | protein stability index (Saccharomyces cerevisiae [2])
1 | SRSVLLCFCWLC | 0.356 ± 0.055 | 0.4492 ± 0.0017 | 0.411 ± 0.038 | 0.5256 ± 0.0042 | 0.27 ± 0.0089 | 0.264 ± 0.014 | 0.3461 ± 0.00068 | 0.347 ± 0.011
2 | SVFCSLFLFLFY | 0.477 ± 0.025 | 0.5013 ± 0.0034 | 0.4 ± 0.032 | 0.5568 ± 0.0013 | 0.414 ± 0.026 | 0.388 ± 0.01 | 0.517 ± 0.026 | 0.422 ± 0.037
3 | SVGCCLLCFFVL | 0.523 ± 0.012 | 0.563 ± 0.012 | 0.41 ± 0.03 | 0.5645 ± 0.0043 | 0.339 ± 0.029 | 0.351 ± 0.029 | 0.5031 ± 0.0027 | 0.425 ± 0.028
4 | SWMSQFSILLTA | 0.0938 ± 0.037 | 0.122 ± 0.0092 | 0.188 ± 0.021 | 0.23 ± 0.0046 | 0.1535 ± 0.00097 | 0.167 ± 0.031 | 0.199 ± 0.04 | 0.285 ± 0.043
5 | SYVLLQSYVSLV | 0.566 ± 0.017 | 0.623 ± 0.016 | 0.474 ± 0.0091 | 0.643 ± 0.016 | 0.318 ± 0.016 | 0.352 ± 0.029 | 0.613 ± 0.083 | 0.451 ± 0.021
6 | TCVTLRYRLTFE | 0.638 ± 0.11 | 0.666 ± 0.027 | 0.564 ± 0.022 | 0.667 ± 0.043 | 0.585 ± 0.04 | 0.522 ± 0.025 | 0.621 ± 0.02 | 0.508 ± 0.11
7 | TFLFPLPFLFFI | 0.0467 ± 0.0054 | 0.0387 ± 0.0025 | 0.102 ± 0.019 | 0.119 ± 0.03 | 0.29 ± 0.014 | 0.0685 ± 0.02 | 0.101 ± 0.0099 | 0.0963 ± 0.016
8 | TFRPWPLHILAL | 0.195 ± 0.0033 | 0.219 ± 0.029 | 0.216 ± 0.038 | 0.325 ± 0.0089 | 0.15 ± 0.0036 | 0.166 ± 0.026 | 0.201 ± 0.019 | 0.257 ± 0.029
9 | THRAVGIGLRCC | 0.558 ± 0.042 | 0.637 ± 0.02 | 0.496 ± 0.029 | 0.645 ± 0.0067 | 0.165 ± 0.01 | 0.186 ± 0.022 | 0.4005 ± 0.0016 | 0.358 ± 0.025
10 | TIRKCIIKWIKI | 0.591 ± 0.032 | 0.581 ± 0.031 | 0.475 ± 0.021 | 0.596 ± 0.029 | 0.174 ± 0.0094 | 0.189 ± 0.036 | 0.398 ± 0.024 | 0.368 ± 0.016
11 | TKDFVIKKTKIS | 0.537 ± 0.017 | 0.7393 ± 0.0047 | 0.641 ± 0.019 | 0.737 ± 0.022 | 0.135 ± 0.03 | 0.159 ± 0.03 | 0.236 ± 0.028 | 0.169 ± 0.021
12 | TLDWKFGRGGIG | 0.315 ± 0.0073 | 0.4083 ± 0.0019 | 0.348 ± 0.017 | 0.406 ± 0.017 | 0.33 ± 0.0094 | 0.338 ± 0.01 | 0.4041 ± 0.0037 | 0.375 ± 0.0046
13 | TVLGRDFALSVC | 0.455 ± 0.0056 | 0.4916 ± 0.004 | 0.361 ± 0.046 | 0.543 ± 0.015 | 0.308 ± 0.0071 | 0.346 ± 0.023 | 0.501 ± 0.0061 | 0.4599 ± 0.00056
14 | TVYMVIRVIVWG | 0.129 ± 0.023 | 0.126 ± 0.046 | 0.141 ± 0.055 | 0.246 ± 0.0077 | 0.0909 ± 0.023 | 0.102 ± 0.032 | 0.154 ± 0.013 | 0.207 ± 0.027
15 | TYCFRVCAWRAN | 0.603 ± 0.049 | 0.706 ± 0.021 | 0.583 ± 0.0094 | 0.677 ± 0.012 | 0.176 ± 0.0011 | 0.208 ± 0.026 | 0.396 ± 0.017 | 0.341 ± 0.016
16 | VACLRLTVYVMG | 0.0455 ± 0.0053 | 0.0789 ± 0.015 | 0.128 ± 0.025 | 0.231 ± 0.0037 | 0.101 ± 0.009 | 0.124 ± 0.03 | 0.204 ± 0.016 | 0.193 ± 0.028
17 | VASYVCIGVVWV | 0.4298 ± 0.0038 | 0.492 ± 0.061 | 0.301 ± 0.023 | 0.497 ± 0.025 | 0.262 ± 0.0045 | 0.299 ± 0.02 | 0.456 ± 0.01 | 0.351 ± 0.035
18 | VCFLCIWLYSED | 0.268 ± 0.028 | 0.358 ± 0.013 | 0.227 ± 0.041 | 0.4305 ± 0.004 | 0.218 ± 0.017 | 0.221 ± 0.033 | 0.418 ± 0.056 | 0.344 ± 0.026
19 | VCLFFFGYWCCL | 0.565 ± 0.066 | 0.555 ± 0.026 | 0.469 ± 0.015 | 0.566 ± 0.0067 | 0.493 ± 0.017 | 0.479 ± 0.0093 | 0.53 ± 0.011 | 0.501 ± 0.024
20 | VCLFRLVVFFPV | 0.234 ± 0.039 | 0.335 ± 0.024 | 0.217 ± 0.021 | 0.426 ± 0.037 | 0.196 ± 0.02 | 0.222 ± 0.018 | 0.377 ± 0.014 | 0.349 ± 0.005
21 | VCLLFRFCCWFW | 0.351 ± 0.024 | 0.357 ± 0.0081 | 0.305 ± 0.013 | 0.461 ± 0.02 | 0.331 ± 0.025 | 0.304 ± 0.01 | 0.414 ± 0.03 | 0.371 ± 0.017
22 | VCTFLLVSFFLS | 0.223 ± 0.0027 | 0.315 ± 0.064 | 0.237 ± 0.028 | 0.423 ± 0.012 | 0.186 ± 0.019 | 0.185 ± 0.017 | 0.33 ± 0.0099 | 0.326 ± 0.017
23 | VCVYLVSLPYLA | 0.451 ± 0.015 | 0.462 ± 0.025 | 0.39 ± 0.026 | 0.522 ± 0.021 | 0.239 ± 0.018 | 0.232 ± 0.03 | 0.381 ± 0.011 | 0.303 ± 0.035
24 | VDFCLLFLLLLV | 0.427 ± 0.041 | 0.442 ± 0.0072 | 0.349 ± 0.034 | 0.482 ± 0.032 | 0.425 ± 0.027 | 0.331 ± 0.02 | 0.462 ± 0.014 | 0.432 ± 0.025
25 | VFCLPISAPPLH | 0.679 ± 0.0083 | 0.739 ± 0.022 | 0.642 ± 0.023 | 0.727 ± 0.0031 | 0.626 ± 0.02 | 0.635 ± 0.019 | 0.7027 ± 0.0031 | 0.685 ± 0.023
26 | VFCMVLPFVLLT | 0.126 ± 0.018 | 0.0906 ± 0.016 | 0.194 ± 0.024 | 0.2715 ± 0.0011 | 0.1776 ± 0.0015 | 0.136 ± 0.02 | 0.157 ± 0.016 | 0.214 ± 0.035
27 | VFFCVLRVFFSA | 0.0798 ± 0.024 | 0.161 ± 0.015 | 0.175 ± 0.024 | 0.291 ± 0.0075 | 0.114 ± 0.013 | 0.132 ± 0.029 | 0.195 ± 0.0091 | 0.193 ± 0.017
28 | VFFIFFFAFLFF | 0.294 ± 0.035 | 0.289 ± 0.0075 | 0.335 ± 0.052 | 0.41 ± 0.0072 | 0.393 ± 0.01 | 0.322 ± 0.014 | 0.39 ± 0.03 | 0.329 ± 0.051
29 | VFFMFVFFPFPG | 0.523 ± 0.084 | 0.584 ± 0.035 | 0.404 ± 0.029 | 0.592 ± 0.03 | 0.368 ± 0.014 | 0.413 ± 0.028 | 0.538 ± 0.0059 | 0.471 ± 0.026
30 | VFGSRCLLTVVV | 0.472 ± 0.0098 | 0.477 ± 0.023 | 0.367 ± 0.032 | 0.5185 ± 0.0017 | 0.336 ± 0.018 | 0.358 ± 0.043 | 0.504 ± 0.0071 | 0.438 ± 0.043
